± gives the uncertainty stated by the source.
Test: self-splicing fitness, log relative to wild type (ln ratio); higher = more splicing; Tetrahymena group I intron in knt gene, E. coli kanamycin selection, DiMSum; sequences stand for … in CUCUCU…GGAGGGAAAAGUUAUCAGGCAUGCACCUGGUAGCUAGUCUUUAAACCAAUAGAUUGCAUCGGUUUAAAAGGCAAGACCGUCAAAUUGCGGGAAAGGGGUCAACAGCCGUUCAGUACCAAGUCUCAGGGGAAACUUUGAGAUGGCCUUGCAAAGGGUAUGGUAAUAAGCUGACGGACAUGGUCCUAACCACGCAGCCAAGUCCUAAGUCAACAGAUCUUCUGUUGAUAUGGAUGCAGUUCACAGACUAAAUGUCGGUCGGGGAAGAUGUAUUCUUCUCAUAAGAUAUAGUCGGACCUCUCCUUAAUGGGAGCUAGCGGAUGAAGUGAUGCAACACUGGAGCCGCUGGGAACUAAUUUGUAUGCGAAAGUAUAUUGAUUAGUUUUGGAGUACUCGUGGUCG
Procedure, shortened: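 Pooled colonies went to amplicon sequencing on an Illumina HiSeq 2500 after six replicate transformations. The plates were LB agar with 100 μg/mL carbenicillin, 50 μM IPTG and 0.2% rhamnose, with or without 25 μg/mL kanamycin, incubated overnight at 37°C or 30°C. The E. coli BL21(DE3) library had all eight P1ex-region intron nucleotides randomised, the intron placed in the knt kanamycin-resistance gene on pET-22b(+). DiMSum fitness is the error-weighted combination of replicate fold changes, kanamycin against none, normalised to wild type.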

Sequence	self-splicing fitness (ln) (30 °C)	self-splicing fitness (ln) (37 °C)
GUUGAGCAAUAUUACGUUGG	-4.19 ± 0.28	-2.01 ± 0.31
GUUGAGCAAUAUUACGUUUU	-2.91 ± 0.22	-2.88 ± 0.3
GUUUAGCAAUAUUACGAAGC		-1.3 ± 0.31
GUUUAGCAAUAUUACGAAUU	-2.25 ± 0.38	-0.545 ± 0.31
GUUUAGCAAUAUUACGACUC	0.0633 ± 0.12	0.248 ± 0.15
GUUUAGCAAUAUUACGAGGU	-3.03 ± 0.2	-2.03 ± 0.2
GUUUAGCAAUAUUACGCAAG	-2.45 ± 0.18	-0.942 ± 0.17
GUUUAGCAAUAUUACGCACC	-1.95 ± 0.19	-0.522 ± 0.26
GUUUAGCAAUAUUACGCGGG	-2.42 ± 0.19	-1.89 ± 0.19
GUUUAGCAAUAUUACGCUAU		-1.56 ± 0.29
GUUUAGCAAUAUUACGGACC	-2.41 ± 0.35	
GUUUAGCAAUAUUACGGAGA		-2.24 ± 0.46
GUUUAGCAAUAUUACGGAGC		-2.99 ± 0.44
GUUUAGCAAUAUUACGGCCC	-1.66 ± 0.29	
GUUUAGCAAUAUUACGGUAG	-3.53 ± 0.29	-1.72 ± 0.19
GUUUAGCAAUAUUACGGUCG	-1.35 ± 0.076	-0.636 ± 0.099
GUUUAGCAAUAUUACGUGAC		-0.596 ± 0.41
GUUUAGCAAUAUUACGUGGA	-2.48 ± 0.21	-2.89 ± 0.29
GUUUAGCAAUAUUACGUUGA	-3.52 ± 0.43	-2 ± 0.26
UAAAAGCAAUAUUACGAACG	0.282 ± 0.1	0.847 ± 0.12
UAAAAGCAAUAUUACGACAA	-0.243 ± 0.1	0.272 ± 0.11
UAAAAGCAAUAUUACGACUA	0.337 ± 0.089	0.733 ± 0.12
UAAAAGCAAUAUUACGAGGG	-3.83 ± 0.33	-2.47 ± 0.3
UAAAAGCAAUAUUACGAGUC	-3.45 ± 0.27	-3.74 ± 0.39
UAAAAGCAAUAUUACGAUAC	-2.36 ± 0.31	-3.93 ± 0.46

Sequence	self-splicing fitness (ln) (30 °C)	self-splicing fitness (ln) (37 °C)
UAAAAGCAAUAUUACGAUGU	-2.44 ± 0.15	-1.33 ± 0.19
UAAAAGCAAUAUUACGCAAA	-3.71 ± 0.4	-0.788 ± 0.18
UAAAAGCAAUAUUACGCAUG	-0.716 ± 0.068	-0.257 ± 0.1
UAAAAGCAAUAUUACGCCCC	-3.1 ± 0.49	0.13 ± 0.35
UAAAAGCAAUAUUACGGACU	-1.21 ± 0.072	-0.711 ± 0.094
UAAAAGCAAUAUUACGGCCG	0.132 ± 0.12	0.444 ± 0.17
UAAAAGCAAUAUUACGGCGA	-0.67 ± 0.11	0.453 ± 0.13
UAAAAGCAAUAUUACGGCGU	-1.12 ± 0.084	-0.0589 ± 0.1
UAAAAGCAAUAUUACGGCUA	0.159 ± 0.073	-0.0882 ± 0.084
UAAAAGCAAUAUUACGGGGA	-1.73 ± 0.12	-0.962 ± 0.12
UAAAAGCAAUAUUACGGGGG	-2.62 ± 0.19	-2.43 ± 0.24
UAAAAGCAAUAUUACGGGUG	-0.67 ± 0.042	-0.46 ± 0.061
UAAAAGCAAUAUUACGGUCG	-0.35 ± 0.087	-0.0674 ± 0.1
UAAAAGCAAUAUUACGUAGC	-3.26 ± 0.19	-2.72 ± 0.18
UAAAAGCAAUAUUACGUAUC	-3.81 ± 0.35	-2.07 ± 0.23
UAAAAGCAAUAUUACGUUGG	-2.36 ± 0.1	-1.42 ± 0.12
UAAAAGCAAUAUUACGUUUC	-3.32 ± 0.14	-2.36 ± 0.19
UAACAGCAAUAUUACGCCAC	-3.93 ± 0.35	-1.54 ± 0.23
UAACAGCAAUAUUACGCCCG	-0.202 ± 0.16	-0.59 ± 0.18
UAACAGCAAUAUUACGCGGU	-3.25 ± 0.17	-3.29 ± 0.15
UAACAGCAAUAUUACGCUCC	-2.62 ± 0.32	-1.22 ± 0.3
UAACAGCAAUAUUACGCUUG	-0.975 ± 0.06	-0.577 ± 0.082
UAACAGCAAUAUUACGGAAC	-3.85 ± 0.24	-4.18 ± 0.39
UAACAGCAAUAUUACGGACC	-3.44 ± 0.43	-1.98 ± 0.28
UAACAGCAAUAUUACGGAGA	-3.27 ± 0.21	-1.1 ± 0.11

Sequence	self-splicing fitness (ln) (30 °C)	self-splicing fitness (ln) (37 °C)
UAACAGCAAUAUUACGGCUA	0.184 ± 0.052	-0.0982 ± 0.067
UAACAGCAAUAUUACGGGAA	-1.76 ± 0.13	-1.35 ± 0.11
UAACAGCAAUAUUACGGUAU	-3.01 ± 0.11	-2.06 ± 0.17
UAACAGCAAUAUUACGGUUC	-2.65 ± 0.069	-1.28 ± 0.08
UAACAGCAAUAUUACGUAAC	-2.93 ± 0.17	-1.62 ± 0.16
UAACAGCAAUAUUACGUAGU	-3.35 ± 0.14	-2.7 ± 0.18
UAACAGCAAUAUUACGUCGA	-1.03 ± 0.12	0.186 ± 0.098
UAACAGCAAUAUUACGUCGG	-0.858 ± 0.066	-0.53 ± 0.08
UAACAGCAAUAUUACGUGAC	-3.68 ± 0.2	-2.46 ± 0.17
UAACAGCAAUAUUACGUUCA	-0.481 ± 0.049	0.0141 ± 0.07
UAACAGCAAUAUUACGUUCC	-2.23 ± 0.11	-2.28 ± 0.18
UAACAGCAAUAUUACGUUGG	-1.67 ± 0.083	-0.828 ± 0.096
UAAGAGCAAUAUUACGAAGA		-1.98 ± 0.38
UAAGAGCAAUAUUACGAGCC	-3.56 ± 0.25	-2.26 ± 0.24
UAAGAGCAAUAUUACGAUAG	-3.46 ± 0.31	-2.12 ± 0.33
UAAGAGCAAUAUUACGAUCU	-2.51 ± 0.24	-2.86 ± 0.36
UAAGAGCAAUAUUACGAUGA	-2.15 ± 0.22	-2.63 ± 0.38
UAAGAGCAAUAUUACGCAAC		-2.19 ± 0.45
UAAGAGCAAUAUUACGCAUG	-2.75 ± 0.28	-1.2 ± 0.23
UAAGAGCAAUAUUACGCGUC	-3.81 ± 0.25	-2.29 ± 0.23
UAAGAGCAAUAUUACGCUCG		-0.845 ± 0.23
UAAGAGCAAUAUUACGGAAC	-2.54 ± 0.33	-3.2 ± 0.46
UAAGAGCAAUAUUACGGGCU		-2.53 ± 0.32
UAAGAGCAAUAUUACGGGGC	-4 ± 0.42	-2.83 ± 0.32
UAAGAGCAAUAUUACGGGUU	-3.51 ± 0.29	-2.06 ± 0.31

Sequence	self-splicing fitness (ln) (30 °C)	self-splicing fitness (ln) (37 °C)
UAAGAGCAAUAUUACGGUGC	-3.43 ± 0.28	
UAAGAGCAAUAUUACGUAGA	-3.89 ± 0.23	-1.34 ± 0.28
UAAGAGCAAUAUUACGUAGC	-4.28 ± 0.31	-2.71 ± 0.28
UAAGAGCAAUAUUACGUAUA	-2.64 ± 0.26	-1.97 ± 0.25
UAAGAGCAAUAUUACGUCCC	-3.99 ± 0.42	
UAAGAGCAAUAUUACGUGCA	-2.09 ± 0.2	-0.84 ± 0.2
UAAUAGCAAUAUUACGAAGU		-1.55 ± 0.47
UAAUAGCAAUAUUACGAGGA	-3.68 ± 0.25	-2.62 ± 0.16
UAAUAGCAAUAUUACGAGUA	-2.31 ± 0.14	-0.79 ± 0.11
UAAUAGCAAUAUUACGAGUU	-2.79 ± 0.23	-2.31 ± 0.27
UAAUAGCAAUAUUACGAUAC	-3.78 ± 0.43	
UAAUAGCAAUAUUACGCACU	-1.16 ± 0.11	-1.02 ± 0.12
UAAUAGCAAUAUUACGCCAG	-1.07 ± 0.2	-1.2 ± 0.32
UAAUAGCAAUAUUACGCGAU	-3.2 ± 0.28	-1.86 ± 0.24
UAAUAGCAAUAUUACGGAAC	-3.01 ± 0.2	-0.714 ± 0.16
UAAUAGCAAUAUUACGGCCU	-1.16 ± 0.14	-0.77 ± 0.19
UAAUAGCAAUAUUACGGUCU	-2.75 ± 0.16	-2.49 ± 0.16
UAAUAGCAAUAUUACGUAAU	-3.25 ± 0.29	-2.52 ± 0.34
UAAUAGCAAUAUUACGUAGA	-3.52 ± 0.18	-1.98 ± 0.17
UAAUAGCAAUAUUACGUAGU	-3.82 ± 0.19	-2.44 ± 0.23
UAAUAGCAAUAUUACGUCGA	-2.4 ± 0.17	-0.993 ± 0.16
UAAUAGCAAUAUUACGUCUC	-3.41 ± 0.26	
UAAUAGCAAUAUUACGUCUG	-0.694 ± 0.075	-0.276 ± 0.089
UACAAGCAAUAUUACGAAAA	-1.94 ± 0.19	-1.22 ± 0.15
UACAAGCAAUAUUACGAAGA	-2.08 ± 0.27	-2.11 ± 0.21

Source: the supplement of paper PMC7877785
